This passage reports EC50 results from patent US20230212554A1 (published 2023).

Assay [1] deals with T1, NP of A/California/07/2009(H1N1/H1S) (influenza A virus, NYMC X-181 derived …). As to the kind of experiment: ELISA on virus-infected fixed MDCK cells. (In general: An ELISA detects its analyte on a solid surface through an enzyme-linked reagent.)
For assay [2], the target named is T1, NP of A/California/07/2009(H1N1/H1S). In words: sandwich ELISA, capture IgG; NP of lysed virus titrated; HRP-NP16 detection.
The target is the same in assay [3]. As to the kind of experiment: sandwich ELISA, capture IgG; NP of lysed virus titrated; HRP-NP17 detection.

T1 sequence (P03466 whole entry): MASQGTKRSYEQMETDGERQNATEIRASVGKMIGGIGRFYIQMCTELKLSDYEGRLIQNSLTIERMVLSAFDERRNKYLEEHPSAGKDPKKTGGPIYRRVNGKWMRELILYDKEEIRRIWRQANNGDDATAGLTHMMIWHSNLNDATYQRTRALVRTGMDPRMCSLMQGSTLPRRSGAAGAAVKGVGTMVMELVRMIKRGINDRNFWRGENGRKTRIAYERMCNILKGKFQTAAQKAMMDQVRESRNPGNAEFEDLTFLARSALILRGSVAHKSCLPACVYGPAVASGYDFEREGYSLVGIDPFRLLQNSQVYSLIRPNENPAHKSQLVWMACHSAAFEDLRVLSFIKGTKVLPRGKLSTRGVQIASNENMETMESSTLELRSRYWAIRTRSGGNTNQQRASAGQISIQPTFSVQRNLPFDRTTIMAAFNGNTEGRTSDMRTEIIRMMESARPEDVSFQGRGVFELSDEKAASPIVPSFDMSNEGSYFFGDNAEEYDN

B1: NP13 (antibody, V domains shown)
VH: EVQLVESGGGLVQPGGSLRLSCAASGFTINNYGIHWVRQAPGKGLEWVASIGPYGGSTYYADSVKGRFTISADTSKNTAYLQMNSLRAEDTAVYYCARFGYFNWLDMDYWGQGTLVTVSS
VL: DIQMTQSPSSLSASVGDRVTITCRASQDVGYWVAWYQQKPGKAPKLLISSASGLYSGVPSRFSGSGSGTDFTLTISSLQPEDFATYYCQQGWDWPITFGQGTKVEIKR
Broadly, the EC50 is the concentration that produces a half-maximal response. Low readings indicate a more potent agent, high ones a less potent agent. Turning to B1, the EC50 in assay [1] worked out at 1.68 nM; in assay [2], 168 nM; in assay [3], 47.9 nM.

B2: NP12 (antibody, V domains shown)
VH: EVQLVESGGGLVQPGGSLRLSCAASGFTIDNGYIHWVRQAPGKGLEWVASIWPSWGSTYYADSVKGRFTISADTSKNTAYLQMNSLRAEDTAVYYCARGFYYYGDYWGQGTLVTVSS
VL: DIQMTQSPSSLSASVGDRVTITCRASQDVGGNVAWYQQKPGKAPKLLISSTAGLYSGVPSRFSGSGSGTDFTLTISSLQPEDFATYYCQQYYDFPLTFGQGTKVEIKR
The molecule B2 came in with an EC50 in assay [1] of 6.09 nM.

B3: NP21 (antibody, V domains shown)
VH: EVQLVESGGGLVQPGGSLRLSCAASGFTINGYGIHWVRQAPGKGLEWVAGIWPYGGSTFYADSVKGRFTISADTSKNTAYLQMNSLRAEDTAVYYCARFYNNHGGIMDYWGQGTLVTVSS
VL: DIQMTQSPSSLSASVGDRVTITCRASQDVYFYVAWYQQKPGKAPKLLIYGSRWLYSGVPSRFSGSGSGTDFTLTISSLQPEDFATYYCQQYSNFPVTFGQGTKVEIKR
Consider B3, for which the EC50 is 0.73 nM in assay [1], 2.67 nM in assay [2] and 0.815 nM in assay [3].

B4: NP15 (antibody, V domains shown)
VH: EVQLVESGGGLVQPGGSLRLSCAASGFTISNWYIHWVRQAPGKGLEWVAGIGPYGGSTYYADSVKGRFTISADTSKNTAYLQMNSLRAEDTAVYYCARFHWDHLHGMDYWGQGTLVTVSS
VL: DIQMTQSPSSLSASVGDRVTITCRASQDVDNNVAWYQQKPGKAPKLLISYSTGLYSGVPSRFSGSGSGTDFTLTISSLQPEDFATYYCQQYWNYPITFGQGTKVEIKR
As for B4, the values for the concentration for a half-maximal effect (EC50) in assay [1], in assay [2] and in assay [3] were 0.249 nM, 2.79 nM and 0.806 nM, respectively.

B5: NP4 (antibody, V domains shown)
VH: EVQLVESGGGLVQPGGSLRLSCAASGFTISNSSIHWVRQAPGKGLEWVAGIGPSGGYTFYADSVKGRFTISADTSKNTAYLQMNSLRAEDTAVYYCARFHSHNSYYSYSHYGYMDYWGQGTLVTVSS
VL: DIQMTQSPSSLSASVGDRVTITCRASQDVGWGVAWYQQKPGKAPKLLISGPSSLYSGVPSRFSGSGSGTDFTLTISSLQPEDFATYYCQQYFNYPITFGQGTKVEIKR
For B5, the EC50 in assay [1] is 4.02 nM; in assay [2], 2.11 nM; in assay [3], 0.862 nM.

B6: NP18 (antibody, V domains shown)
VH: EVQLVESGGGLVQPGGSLRLSCAASGFTISGGGIHWVRQAPGKGLEWVASIWPSWGSTSYADSVKGRFTISADTSKNTAYLQMNSLRAEDTAVYYCARFHNGGFLVMDYWGQGTLVTVSS
VL: DIQMTQSSSSLSASVGDRVTITCRASQDVGYYVAWYQQKPGKAPKLLIYGPRFLYSGVPSRFSGSGSGTDFTLTISSLQPEDFATYYCQQYSNWPITFGQGTKVEIKR
With B6, the EC50 in assay [1] was determined as 0.168 nM.

B7: NP16 (antibody, V domains shown)
VH: EVQLVESGGGLVQPGGSLRLSCAASGFTIGNSGIHWVRQAPGKGLEWVAWIGPYWGFTSYADSVKGRFTISADTSKNTAYLQMNSLRAEDTAVYYCARFGNHWHLFMDYWGQGTLVTVSS
VL: DIQMTQSPSSLSASVGDRVTITCRASQDVGSYVAWYQQKPGKAPKLLISWTTGLYSGVPSRFSGSGSGTDFTLTISSLQPEDFATYYCQQYFSYPVTFGQGTKVEIKR
Regarding B7, the EC50 in assay [1] came out at 0.239 nM; in assay [2], 4.41 nM; in assay [3] it was 0.919 nM.

B8: NP9 (antibody, V domains shown)
VH: EVQLVESGGGLVQPGGSLRLSCAASGFTINNGWIHWVRQAPGKGLEWVAGIGPYWGFTSYADSVKGRFMISADTSKNTAYLQMNSLRAEDTAVYYCARFDSDHDHHYSYYYYYDNGYMDYWGQGTLVTVSS
VL: DIQMTQSPSSLSASVGDRVTITCRASQDVWFSVAWYQQKPGKAPKLLIYGTTSLYSGVPSRFSGSGSGTDFTLTISSLQPEDFATYYCQQYFNYPLTFGQGTKVEIKR
With B8, the EC50 came to 2.14 nM in assay [1] and 53.9 nM in assay [2].

B9: NP6 (antibody, V domains shown)
VH: EVQLVESGGGLVQPGGSLRLSCAASGFTINDGSIHWVRQAPGKGLEWVAGIGPFGGFTYYADSVKGRFTISADTSKNTAYLQMNSLRAEDTAVYYCARSGYSGSFDYWGQGTLVTVSS
VL: DIQMTQSPSSLSASVGDRVTITCRASQDVYFGVAWYQQKPGKAPKLLIYGTSYLYSGVPSRFSGSGSGTDFTLTISSLQPEDFATYYCQQFSNWPITFGQGTKVEIKR
Turning to B9, the EC50 in assay [1] worked out at 6.46 nM; in assay [2], 3.12 nM; in assay [3] it was 3.07 nM.

B10: NP8 (antibody, V domains shown)
VH: EVQLVESGGGLVQPGGSLRLSCAASGFTINSFGIHWVRQAPGKGLEWVAGIGPFGGSTFYADSVKGRFTISADTSKNTAYLQMNSLRAEDTAVYYCARGFYWFDYWGQGTLVTVSS
VL: DIQMTQSPSSLSASVGDRVTITCRASQDVDDSVAWYQQKPGKAPKLLIYWTRYLYSGVPSRFSGSGSGTDFTLTISSLQPEDFATYYCQQGYNYPLTFGQGTKVEIKR
As to B10, the EC50 came to 2.33 nM in assay [2] and 0.752 nM in assay [3].

B11: NP10 (antibody, V domains shown)
VH: EVQLVESGGGLVQPGGSLRLSCAASGFTIDNGSIHWVRQAPGKGLEWVAWIWPFGGSTSYADSVKGRFTISADTSKNTAYLQMNSLRAEDTAVYYCARSWSSGYDYWGQGTLVTVSS
VL: DIQMTQSPSSLSASVGDRVTITCRASQDVSWSVAWYQQKPGKAPKLLISGSTWLYSGVPSRFSGSGSGTDFTLTISSLQPEDFATYYCQQYSNSPITFGQGTKVEIKR
As to B11, the values for the concentration for a half-maximal effect (EC50) in assay [2] and in assay [3] were 3.3 nM and 0.798 nM, respectively.

B12: NP7 (antibody, V domains shown)
VH: EVQLVESGGGLVQPGGSLRLSCAASGFTISNGGIHWVRQAPGKGLEWVAGIGPYGGFTSYADSVKGRFTISADTSKNTAYLQMNSLRAEDTAVYYCARFYSNYYGYHGVMDYWGQGTLVTVSS
VL: DIQMTQSPSSLSASVGDRVTITCRASQDVFGWVAWYQQKPGKAPKLLISYSASLYSGVPSRFSGSGSGTDFTLTISSLQPEDFATYYCQQYFNYPLTFGQGTKVEIKR
For B12, the EC50 is 2.36 nM in assay [2] and 0.9 nM in assay [3].

B13: NP5 (antibody, V domains shown)
VH: EVQLVESGGGLVQPGGSLRLSCAASGFTISNGSIHWVRQAPGKGLEWVAGIWPSGGSTSYADSVKGRFTISADTINNSAYLQMNSLRAEDTAVYYCARWNYWGQGTLVTVSS
VL: DIQMTQSPSSLSASVGDRVTITCRASQDVGWSVAWYQQKPGKAPKLLIYGSRWLYSGVPSRFSGSGSGTDFTLTISSLQPEDFATYYCQQGYNGPLTFGQGTKVEIKR
As to B13, the EC50 in assay [2] was determined as 3.32 nM; in assay [3], 0.918 nM.

B14: NP14 (antibody, V domains shown)
VH: EVQLVESGGGLVQPGGSLRLSCAASGFTIDNGGIHWVRQAPGKGLEWVASIWPSWGSTSYADSVKGRFTISADTSKNTAYLQMNSLRAEDTAVYYCARFNFGVFGVMDYWGQGTLVTVSS
VL: DIQMTQSPSSLSASVGDRVTITCRASQDVDNDVAWYQQKPGKAPKLLIYGPRGLYSGVPSRFSGSGSGTDFTLTISSLQPEDFATYYCQQYSSWPLTFGQGTKVEIKR
B14 returned an EC50 in assay [1] of 3.43 nM.

B15: NP17 (antibody, V domains shown)
VH: EVQLVESGGGLVQPGGSLRLSCAASGFTISGGSIHWVRQAPGKGLEWVASIWPFGGSTFYADSVKGRFTISADTSKNTAYLQMNSLRAEDTAVYYCARFGHGHNVIMDYWGQGTLVTVSS
VL: DIQMTQSPSSLSASVGDRVTITCRASQDVGYSVAWYQQKPGKAPKLLISSPGGLYSGVPSRFSGSGSGTDFTLTISSLQPEDFATYYCQQYYDYPVTFGQGTKVEIKR
For the molecule B15, the results for the EC50 in assay [1], in assay [2] and in assay [3] were 28.7 nM, 3.28 nM and 1.02 nM, respectively.

B16: NP3 (antibody, V domains shown)
VH: EVQLVESGGGLVQPGGSLRLSCAASGFTISNYGIHWVRQAPGKGLEWVAGIWPFGGFTSYADSVKGRFTISADTSKNTAYLQMNSLRAEDTAVYYCARFHWNDHGYMDYWGQGTLVTVSS
VL: DIQMTQSPSSLSASVGDRVTITCRASQDVGWYVAWYQQKPGKAPKLLIYSTTGLYSGVPSRFSGSGSGTDFTLTISSLQPEDFATYYCQQYYNYPITFGQGTKVEIKR
As to B16, the values for the EC50 in assay [1], in assay [2] and in assay [3] were 0.55 nM, 1.96 nM and 0.834 nM, respectively.

B17: NP19 (antibody, V domains shown)
VH: EVQLVESGGGLVQPGGSLRLSCAASGFTISSWGIHWVRQAPGKGLEWVAGIGPFWGYTSYADSVKGRFTISADTSKNTAYLQMNSLRAEDTAVYYCARFGVDNYGYMDYWGQGTLVTVSS
VL: DIQMTQSPSSLSASVGDRVTITCRASQDVSGWVAWYQQKPGKAPKLLISWSTGLYSGVPSRFSGSGSGTDFTLTISSLQPEDFATYYCQQYFNFPVTFGQGTKVEIKR
B17: the EC50 in assay [1] came out at 0.304 nM; in assay [2], 5.37 nM; in assay [3], 0.863 nM.
